Test results taken from patent US20130251708A1 (ABGENOMICS COOPERATIEF U A, published 2013).
One block for each binder: values may come before it.

Assays:
[1] = target: T1, human PSGL-1 on activated primary human CD4+ T cells (human, UniProt Q14242 42-412); assay: flow cytometry on activated human CD4+ T cells, mean +/- SEM of 4 donors
T1 construct: also called P-selectin glycoprotein ligand-1; SELPLG
T1 sequence: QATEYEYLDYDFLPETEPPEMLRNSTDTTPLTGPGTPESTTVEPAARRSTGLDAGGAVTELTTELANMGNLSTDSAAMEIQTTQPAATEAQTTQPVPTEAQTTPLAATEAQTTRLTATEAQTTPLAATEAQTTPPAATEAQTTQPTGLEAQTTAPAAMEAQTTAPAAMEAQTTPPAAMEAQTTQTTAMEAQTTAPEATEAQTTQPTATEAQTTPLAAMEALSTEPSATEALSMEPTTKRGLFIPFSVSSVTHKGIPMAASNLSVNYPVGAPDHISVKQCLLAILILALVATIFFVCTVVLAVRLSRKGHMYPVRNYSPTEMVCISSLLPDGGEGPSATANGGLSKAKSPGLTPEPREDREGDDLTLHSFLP
Protocol: (§1) Anti-lysozyme IgG4, h15A7 and 15A7H antibody binding affinity to activated CD4+ T cells were determined by plotting antibody concentration versus mean fluorescence index (MFI) for each sample duplicate using XLfit (model: dose response one site, 205). EC50 values were determined for each binding curve.
Using flow cytometry, the binding of 15A7H to activated human CD4+ T-cells was determined.
(§2) EC50 values from 4 donors were used to calculate Mean+/−SEM.

[2] = target: T1, human PSGL-1 on activated primary human …; assay: flow cytometry on activated human CD4+ T cells, mean +/- SEM
Protocol: as §1, §2

EC50 [1]: 0.22 nM
B1: 15A7H (antibody, human IgG4 S228P, kappa)
heavy: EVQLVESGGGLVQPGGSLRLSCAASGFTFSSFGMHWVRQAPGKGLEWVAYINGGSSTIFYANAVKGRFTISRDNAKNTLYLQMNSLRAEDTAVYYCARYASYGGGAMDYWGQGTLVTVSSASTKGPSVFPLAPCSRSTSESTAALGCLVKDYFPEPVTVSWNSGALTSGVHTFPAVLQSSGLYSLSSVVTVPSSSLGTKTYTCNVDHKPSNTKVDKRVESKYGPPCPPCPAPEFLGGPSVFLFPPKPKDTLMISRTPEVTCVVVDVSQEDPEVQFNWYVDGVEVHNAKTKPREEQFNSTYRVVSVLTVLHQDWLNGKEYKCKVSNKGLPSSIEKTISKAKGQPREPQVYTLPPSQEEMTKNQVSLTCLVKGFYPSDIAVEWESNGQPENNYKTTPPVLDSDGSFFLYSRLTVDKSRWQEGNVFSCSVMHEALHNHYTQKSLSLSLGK
light: DIQMTQSPSSLSASVGDRVTITCRSSQSIVHNDGNTYFEWYQQKPGKAPKLLIYKVSNRFSGVPSRFSGSGSGTHFTLTISSLQPEDFATYYCFQGSYVPLTFGQGTKVEIKRTVAAPSVFIFPPSDEQLKSGTASVVCLLNNFYPREAKVQWKVDNALQSGNSQESVTEQDSKDSTYSLSSTLTLSKADYEKHKVYACEVTHQGLSSPVTKSFNRGEC
notes: Humanized IgG4 kappa antibody with the Ser228->Pro228 (EU index) hinge mutation, made in CHO-DG44 cells; also called hinge mutant of h15A7; 15A7H antibody

EC50 [2]: 0.27 nM
B2: h15A7 (antibody, human IgG4, kappa)
heavy: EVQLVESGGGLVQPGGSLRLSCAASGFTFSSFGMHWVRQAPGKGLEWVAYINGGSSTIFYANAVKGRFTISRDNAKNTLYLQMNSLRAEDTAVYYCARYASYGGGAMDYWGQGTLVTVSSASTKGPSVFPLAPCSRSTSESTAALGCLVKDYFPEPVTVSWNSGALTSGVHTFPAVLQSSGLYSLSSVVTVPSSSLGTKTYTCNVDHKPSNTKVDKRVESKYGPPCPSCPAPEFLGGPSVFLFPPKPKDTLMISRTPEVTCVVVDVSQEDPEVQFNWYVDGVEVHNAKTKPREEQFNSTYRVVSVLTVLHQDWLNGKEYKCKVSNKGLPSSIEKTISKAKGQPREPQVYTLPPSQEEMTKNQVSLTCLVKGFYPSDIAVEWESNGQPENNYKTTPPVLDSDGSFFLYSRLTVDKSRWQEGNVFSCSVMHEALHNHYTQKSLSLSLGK
light: B1 light
notes: Parent IgG4 kappa antibody with the wild-type hinge; also called Antibody h15A7
